From US20200270588A1, “GLUCOSYL TRANSFERASE POLYPEPTIDES AND METHODS OF USE” (Syngenta Participations AG, priority 2017, published 2020)

Assay: UDP luminescence plate assay of E. coli extracts, mutants within SEQ ID No: 17, 2 mM metribuzin
Assay type: biochemical, Zea mays
Conditions: for metribuzin signal relative to the SEQ ID No:17 control (first parentheses) / ratio of metribuzin to DMSO signal (second parentheses) / SIGNAL: metribuzin signal of mutant divided by the signal of the SEQ ID No. 17 control / luminescence signal observed with 2 mM metribuzin: 2 mM metribuzin; for metribuzin signal relative to the SEQ ID No:17 control (first parentheses) / ratio of metribuzin to DMSO signal (second parentheses): additional mutation in SEQ ID No: 17; for SIGNAL: metribuzin signal of mutant divided by the signal of the SEQ ID No. 17 control: relative to SEQ ID No: 17 control; for luminescence signal in the DMSO control / luminescence signal observed with 2 mM metribuzin: additional mutations within SEQ ID No: 17; for luminescence signal in the DMSO control: DMSO in place of metribuzin; for luminescence signal observed with 2 mM metribuzin: control = SEQ ID No: 17
Description: Activities observed with metribuzin were generally lower in magnitude than seen with herbicide V in the previous examples. For example, in one plate assay run with 2 mM metribuzin using 5 ul of diluted extract of plate-grown BL21DE3 cells expressing w/t bx9 and assayed for 40 minutes (as described in Example 2) the UDP-Glo luminescence signal was ˜3.4 E6 as compared with ˜2.3E6 in the DMSO control and ˜1.7E6 in the H24A null mutant control. […] It was therefore important to assess potential improvements in the metribuzin activity of the various mutants relative to the wild type bx9 enzyme based not only on the H24A null activity control but also based upon controls with DMSO in place of metribuzin acceptor substrate. In some plate assays (using more dilute extracts) the metribuzin signals from the w/t enzyme was the same or barely greater than the DMSO control. Additionally, some mutations gave an increase in the ‘background’ UDP-glucose hydrolysis activity with just DMSO present that was the same or similar to the magnitude of the increase in signal seen with metribuzin. In these instances it is therefore uncertain from just this UDP-Glo assay method whether the specific metribuzin signal (glucosylation of metribuzin) is improved or not i.e. the signal seen with metribuzin may or may not all or to a large part be attributable to increased background hydrolysis). […] Thus the ratio of the metribuzin to DMSO signal as well as the increase in signal relative to the w/t bx9 is used to help distinguish those mutations most likely to offer the highest activity to metribuzin. A follow up assay monitored by, for example, LC MS is one method to distinguish these cases more quantitatively. The tables below summarise the results from two different sets of luminescence plate assays to detect single mutations giving improvements in the magnitude of the signal with metribuzin relative to w/t bx9 and/or the apparent specificity for metribuzin as measured by the deviation of the ratio of metribuzin to DMSO control activity from the bx9 w/t value of around unity.
A further separate screen was carried out to explore a library of additional mutations at various positions within the context of SEQ ID No: 17 for improved metribuzin activity. These were assayed, assessed and scored as above. […] These were S75K (2.5)(1.25), A236G (4.0)(1.15), A433V (3.3)(9.0) and R449C (1.8)(1.2).
A yet further and more comprehensive screen was carried out to explore saturation mutagenesis at all remaining amino acid positions within the context of SEQ ID No:17 for improved metribuzin activity. Again these were assayed, assessed and scored as above and the results of (out of the thousands screened) of the subset that were of interest are summarized in Table 16.

Row | Molecule | metribuzin signal relative to the SEQ ID No:17 control (first parentheses) | ratio of metribuzin to DMSO signal (second parentheses) | RATIO of the metribuzin signal to the DMSO signal (2 mM metribuzin vs DMSO control, same mutant) | SIGNAL: metribuzin signal of mutant divided by the signal of the SEQ ID No. 17 control | luminescence signal in the DMSO control | luminescence signal observed with 2 mM metribuzin
1 | S75K: additional mutation in SEQ ID No: 17 (protein, Mutated Zea mays Bx9 protein sequence) MASSRTGAGAGGRVVVFPFPFQGHFNPVMRLARALHARGLAITVFHSGALDPADYPADYRFVPVTVEADPKLLAKEDIAAIVTTLNASCDAPFRARLSALLAAEGRDSVRCVFTDVVWNAVLTASSDLGVPALGMMTASAASLRDYMAYRTLIDKGYLPVKEERKEDPVPELPPYLVKDLLRVDTSDLEEFAELLARTVTAARRASGLIFNTFPLIETDTLAEIHKALSVPVFAVAPLNKLVPTATASLHGVVQADRGCLQWLDTQQPGSVLYVSFGSFAAMDPHEFVELAWGLADSKRPFVWVVRPNLIRGFESGALPDGVEDEVRGRGIVVKWAPQEEVLAHPAVGGFLTHNGWNSTVEAISEGVPMVCCPRHGDQFGNMRYVCDVWKVGTELVGEQLERGQVKAAIDRLFGTKEGEEIKERMKEFKIAAAKGIGIGVDVDETASPRTDLTDLVDLIKSF | 2.5 | 1.25 |  |  |  | 
2 | S364L: additional mutation in SEQ ID No: 17 (protein, Mutated Zea mays Bx9 protein sequence) MASSRTGAGAGGRVVVFPFPFQGHFNPVMRLARALHARGLAITVFHSGALDPADYPADYRFVPVTVEADPKLLASEDIAAIVTTLNASCDAPFRARLSALLAAEGRDSVRCVFTDVVWNAVLTASSDLGVPALGMMTASAASLRDYMAYRTLIDKGYLPVKEERKEDPVPELPPYLVKDLLRVDTSDLEEFAELLARTVTAARRASGLIFNTFPLIETDTLAEIHKALSVPVFAVAPLNKLVPTATASLHGVVQADRGCLQWLDTQQPGSVLYVSFGSFAAMDPHEFVELAWGLADSKRPFVWVVRPNLIRGFESGALPDGVEDEVRGRGIVVKWAPQEEVLAHPAVGGFLTHNGWNSTVEAILEGVPMVCCPRHGDQFGNMRYVCDVWKVGTELVGEQLERGQVKAAIDRLFGTKEGEEIKERMKEFKIAAAKGIGIGVDVDETASPRTDLTDLVDLIKSF | 3.3 | 1.20 | 1.19 | 3.29 | 5.04E+06 | 6.00E+06
3 | V360M: additional mutation in SEQ ID No: 17 (protein, Mutated Zea mays Bx9 protein sequence) MASSRTGAGAGGRVVVFPFPFQGHFNPVMRLARALHARGLAITVFHSGALDPADYPADYRFVPVTVEADPKLLASEDIAAIVTTLNASCDAPFRARLSALLAAEGRDSVRCVFTDVVWNAVLTASSDLGVPALGMMTASAASLRDYMAYRTLIDKGYLPVKEERKEDPVPELPPYLVKDLLRVDTSDLEEFAELLARTVTAARRASGLIFNTFPLIETDTLAEIHKALSVPVFAVAPLNKLVPTATASLHGVVQADRGCLQWLDTQQPGSVLYVSFGSFAAMDPHEFVELAWGLADSKRPFVWVVRPNLIRGFESGALPDGVEDEVRGRGIVVKWAPQEEVLAHPAVGGFLTHNGWNSTMEAISEGVPMVCCPRHGDQFGNMRYVCDVWKVGTELVGEQLERGQVKAAIDRLFGTKEGEEIKERMKEFKIAAAKGIGIGVDVDETASPRTDLTDLVDLIKSF | 2.0 | 1.28 |  | 2.02 | 2.88E+06 | 3.68E+06
4 | A433V: additional mutation in SEQ ID No: 17 (protein, Mutated Zea mays Bx9 protein sequence) MASSRTGAGAGGRVVVFPFPFQGHFNPVMRLARALHARGLAITVFHSGALDPADYPADYRFVPVTVEADPKLLASEDIAAIVTTLNASCDAPFRARLSALLAAEGRDSVRCVFTDVVWNAVLTASSDLGVPALGMMTASAASLRDYMAYRTLIDKGYLPVKEERKEDPVPELPPYLVKDLLRVDTSDLEEFAELLARTVTAARRASGLIFNTFPLIETDTLAEIHKALSVPVFAVAPLNKLVPTATASLHGVVQADRGCLQWLDTQQPGSVLYVSFGSFAAMDPHEFVELAWGLADSKRPFVWVVRPNLIRGFESGALPDGVEDEVRGRGIVVKWAPQEEVLAHPAVGGFLTHNGWNSTVEAISEGVPMVCCPRHGDQFGNMRYVCDVWKVGTELVGEQLERGQVKAAIDRLFGTKEGEEIKERMKEFKIAAVKGIGIGVDVDETASPRTDLTDLVDLIKSF | 3.3 | 9.0 |  |  |  | 
5 | A236G: additional mutation in SEQ ID No: 17 (protein, Mutated Zea mays Bx9 protein sequence) MASSRTGAGAGGRVVVFPFPFQGHFNPVMRLARALHARGLAITVFHSGALDPADYPADYRFVPVTVEADPKLLASEDIAAIVTTLNASCDAPFRARLSALLAAEGRDSVRCVFTDVVWNAVLTASSDLGVPALGMMTASAASLRDYMAYRTLIDKGYLPVKEERKEDPVPELPPYLVKDLLRVDTSDLEEFAELLARTVTAARRASGLIFNTFPLIETDTLAEIHKALSVPVFAVGPLNKLVPTATASLHGVVQADRGCLQWLDTQQPGSVLYVSFGSFAAMDPHEFVELAWGLADSKRPFVWVVRPNLIRGFESGALPDGVEDEVRGRGIVVKWAPQEEVLAHPAVGGFLTHNGWNSTVEAISEGVPMVCCPRHGDQFGNMRYVCDVWKVGTELVGEQLERGQVKAAIDRLFGTKEGEEIKERMKEFKIAAAKGIGIGVDVDETASPRTDLTDLVDLIKSF | 4.0 | 1.15 |  |  |  | 
6 | R449C: additional mutation in SEQ ID No: 17 (protein, Mutated Zea mays Bx9 protein sequence) MASSRTGAGAGGRVVVFPFPFQGHFNPVMRLARALHARGLAITVFHSGALDPADYPADYRFVPVTVEADPKLLASEDIAAIVTTLNASCDAPFRARLSALLAAEGRDSVRCVFTDVVWNAVLTASSDLGVPALGMMTASAASLRDYMAYRTLIDKGYLPVKEERKEDPVPELPPYLVKDLLRVDTSDLEEFAELLARTVTAARRASGLIFNTFPLIETDTLAEIHKALSVPVFAVAPLNKLVPTATASLHGVVQADRGCLQWLDTQQPGSVLYVSFGSFAAMDPHEFVELAWGLADSKRPFVWVVRPNLIRGFESGALPDGVEDEVRGRGIVVKWAPQEEVLAHPAVGGFLTHNGWNSTVEAISEGVPMVCCPRHGDQFGNMRYVCDVWKVGTELVGEQLERGQVKAAIDRLFGTKEGEEIKERMKEFKIAAAKGIGIGVDVDETASPCTDLTDLVDLIKSF | 1.8 | 1.2 |  |  |  | 
7 | G366H: additional mutation in SEQ ID No: 17 (protein, Mutated Zea mays Bx9 protein sequence) MASSRTGAGAGGRVVVFPFPFQGHFNPVMRLARALHARGLAITVFHSGALDPADYPADYRFVPVTVEADPKLLASEDIAAIVTTLNASCDAPFRARLSALLAAEGRDSVRCVFTDVVWNAVLTASSDLGVPALGMMTASAASLRDYMAYRTLIDKGYLPVKEERKEDPVPELPPYLVKDLLRVDTSDLEEFAELLARTVTAARRASGLIFNTFPLIETDTLAEIHKALSVPVFAVAPLNKLVPTATASLHGVVQADRGCLQWLDTQQPGSVLYVSFGSFAAMDPHEFVELAWGLADSKRPFVWVVRPNLIRGFESGALPDGVEDEVRGRGIVVKWAPQEEVLAHPAVGGFLTHNGWNSTVEAISEHVPMVCCPRHGDQFGNMRYVCDVWKVGTELVGEQLERGQVKAAIDRLFGTKEGEEIKERMKEFKIAAAKGIGIGVDVDETASPRTDLTDLVDLIKSF | 3.4 | 1.34 |  | 3.38 | 4.62E+06 | 6.17E+06
